Reference: publication PMC10981135
Numbering of substitutions follows the chain as printed. Read-outs that look alike come from different tables or passages of the source.

Assays:
Assay in all cases: BLI
PfAlba6 = biological target: T1, PfAlba6 (Plasmodium falciparum 3D7, UniProt Q8I617)
T1 sequence: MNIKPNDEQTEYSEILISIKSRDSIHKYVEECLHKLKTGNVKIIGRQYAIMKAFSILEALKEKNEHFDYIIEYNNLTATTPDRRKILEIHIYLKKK

PfAlba6 Y28A [1] = biological target: T2, PfAlba6 Y28A (Plasmodium falciparum 3D7, UniProt Q8I617 1-96, Y28A)
T2 sequence: T1 sequence with Y28A

PfAlba6 Y28A [2] = biological target: T2, PfAlba6 Y28A; remark: listed apart in the source

B1: 28 bp dsDNA (C28) (dsDNA)
DNA 1: TGGCGAAAGGGGGTTGTGCTGCAAGGCG
DNA 2: CGCCTTGCAGCACAACCCCCTTTCGCCA
Question: B1 was tested. Which Kd (PfAlba6) did it give?
Answer: Its Kd is 0.01 ± 0.00037 µM.

Question: What about the Kd (PfAlba6 Y28A [1]) of the same binder?
Answer: The Kd was 0.01 ± 0.0009 µM.

Question: And the Kd (PfAlba6 Y28A [2])?
Answer: The Kd was 0.0121 ± 0.00083 µM.
